The values below come from PMC11032491, “A conserved strategy to attack collagen: The activator domain in bacterial collagenases unwinds triple-helical collagen” (Proceedings of the National Academy of Sciences of the …, 2024).

Assay [1] addresses Type I gelatin (heat-denatured acid-soluble type I atelocollagen from bovine hides) (bovine). Nature of the assay: ELISA; indirect ELISA; gelatin immobilised, ColQ1-CU G472V variants in solution; 37 °C (Fig. 4B).
The target of assay [2] is type I gelatin (heat-denatured acid-soluble type I atelocollagen from bovine hides) (bovine) (UniProt P02453). Description: ELISA.
Chain of type I gelatin (heat-denatured acid-soluble type I atelocollagen from bovine hides) (bovine) (P02453 23-1217, chain 1 of 2): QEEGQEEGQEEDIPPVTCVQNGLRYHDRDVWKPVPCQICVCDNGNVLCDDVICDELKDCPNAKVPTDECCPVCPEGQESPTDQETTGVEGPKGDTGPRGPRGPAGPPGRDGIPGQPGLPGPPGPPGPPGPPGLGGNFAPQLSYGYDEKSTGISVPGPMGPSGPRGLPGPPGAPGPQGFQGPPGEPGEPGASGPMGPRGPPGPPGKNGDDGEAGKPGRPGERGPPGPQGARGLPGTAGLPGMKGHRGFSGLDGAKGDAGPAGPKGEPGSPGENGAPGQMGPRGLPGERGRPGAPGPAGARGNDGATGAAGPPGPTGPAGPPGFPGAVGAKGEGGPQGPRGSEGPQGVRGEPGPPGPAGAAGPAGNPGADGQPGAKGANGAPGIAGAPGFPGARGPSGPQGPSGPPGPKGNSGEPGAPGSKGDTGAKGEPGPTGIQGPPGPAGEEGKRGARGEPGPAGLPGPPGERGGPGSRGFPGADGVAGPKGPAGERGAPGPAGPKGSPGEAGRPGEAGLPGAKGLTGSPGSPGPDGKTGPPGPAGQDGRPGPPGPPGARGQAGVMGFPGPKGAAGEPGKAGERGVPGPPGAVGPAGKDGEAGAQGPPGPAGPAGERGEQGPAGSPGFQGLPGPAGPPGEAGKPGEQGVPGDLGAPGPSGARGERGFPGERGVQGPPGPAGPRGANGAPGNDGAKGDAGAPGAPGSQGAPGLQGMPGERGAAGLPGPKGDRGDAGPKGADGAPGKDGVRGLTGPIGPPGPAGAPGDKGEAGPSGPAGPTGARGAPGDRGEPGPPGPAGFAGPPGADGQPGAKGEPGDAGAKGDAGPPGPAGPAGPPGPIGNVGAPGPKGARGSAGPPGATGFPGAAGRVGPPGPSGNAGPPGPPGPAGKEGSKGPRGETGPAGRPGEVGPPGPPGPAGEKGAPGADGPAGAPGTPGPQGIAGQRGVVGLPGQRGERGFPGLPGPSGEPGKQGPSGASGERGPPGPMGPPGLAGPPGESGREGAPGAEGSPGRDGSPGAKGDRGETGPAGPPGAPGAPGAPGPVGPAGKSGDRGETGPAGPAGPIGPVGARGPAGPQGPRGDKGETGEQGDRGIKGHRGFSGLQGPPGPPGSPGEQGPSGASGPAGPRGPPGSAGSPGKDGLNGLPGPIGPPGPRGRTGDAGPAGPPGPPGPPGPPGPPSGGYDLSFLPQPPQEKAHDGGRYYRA
Chain of type I gelatin (heat-denatured acid-soluble type I atelocollagen from bovine hides) (bovine) (P02465 80-1117, chain 2 of 2, further chain): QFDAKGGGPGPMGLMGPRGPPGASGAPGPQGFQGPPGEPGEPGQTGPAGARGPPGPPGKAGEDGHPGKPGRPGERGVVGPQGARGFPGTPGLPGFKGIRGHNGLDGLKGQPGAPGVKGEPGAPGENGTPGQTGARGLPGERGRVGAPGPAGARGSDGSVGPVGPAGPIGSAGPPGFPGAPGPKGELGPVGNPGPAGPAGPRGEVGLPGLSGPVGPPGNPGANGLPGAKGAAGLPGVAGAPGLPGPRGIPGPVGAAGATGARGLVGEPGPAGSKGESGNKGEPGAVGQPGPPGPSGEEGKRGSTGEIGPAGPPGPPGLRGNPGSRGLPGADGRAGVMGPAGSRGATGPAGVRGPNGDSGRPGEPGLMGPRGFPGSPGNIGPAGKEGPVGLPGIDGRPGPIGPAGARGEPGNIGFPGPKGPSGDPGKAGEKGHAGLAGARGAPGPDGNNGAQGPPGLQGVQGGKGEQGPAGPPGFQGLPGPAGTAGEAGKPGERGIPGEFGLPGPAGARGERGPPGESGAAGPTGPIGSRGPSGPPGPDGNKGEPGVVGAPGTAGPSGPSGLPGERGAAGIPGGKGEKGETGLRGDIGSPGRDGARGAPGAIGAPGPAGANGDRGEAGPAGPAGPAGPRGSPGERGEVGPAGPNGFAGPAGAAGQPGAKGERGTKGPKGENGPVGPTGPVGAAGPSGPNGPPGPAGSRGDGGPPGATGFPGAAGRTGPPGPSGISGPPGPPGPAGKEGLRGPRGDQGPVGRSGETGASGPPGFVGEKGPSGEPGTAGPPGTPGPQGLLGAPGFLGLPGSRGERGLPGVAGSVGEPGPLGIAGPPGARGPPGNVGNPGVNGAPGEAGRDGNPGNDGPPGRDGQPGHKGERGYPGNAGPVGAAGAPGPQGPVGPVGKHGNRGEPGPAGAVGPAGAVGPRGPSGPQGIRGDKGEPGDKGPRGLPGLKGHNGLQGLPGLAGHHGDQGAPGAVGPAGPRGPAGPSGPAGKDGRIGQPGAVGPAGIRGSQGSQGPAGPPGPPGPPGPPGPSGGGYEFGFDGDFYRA
Assay [3] deals with V-domain of Scl2.3 (Streptococcus pyogenes). Description: SDS-PAGE (SDS-stable oligomer); 12% nonreducing SDS-PAGE of 10 µM V-(GXY)26 incubated with or without ColG-CU at 25 °C (Fig. 2C).
In assay [4] the target is Type I gelatin (heat-denatured acid-soluble type I atelocollagen from bovine hides). Nature of the assay: indirect ELISA. To be noted: 37 °C; parent: est. 1.5 µM; read off a plot.
The target in assay [5] is Acid-soluble type I atelocollagen from bovine hides (bovine) (UniProt P02453). Description: ELISA. On the technique in general: ELISA stands for enzyme-linked immunosorbent assay.
Chain of Acid-soluble type I atelocollagen from bovine hides (bovine) (P02453 162-1217, chain 1 of 2): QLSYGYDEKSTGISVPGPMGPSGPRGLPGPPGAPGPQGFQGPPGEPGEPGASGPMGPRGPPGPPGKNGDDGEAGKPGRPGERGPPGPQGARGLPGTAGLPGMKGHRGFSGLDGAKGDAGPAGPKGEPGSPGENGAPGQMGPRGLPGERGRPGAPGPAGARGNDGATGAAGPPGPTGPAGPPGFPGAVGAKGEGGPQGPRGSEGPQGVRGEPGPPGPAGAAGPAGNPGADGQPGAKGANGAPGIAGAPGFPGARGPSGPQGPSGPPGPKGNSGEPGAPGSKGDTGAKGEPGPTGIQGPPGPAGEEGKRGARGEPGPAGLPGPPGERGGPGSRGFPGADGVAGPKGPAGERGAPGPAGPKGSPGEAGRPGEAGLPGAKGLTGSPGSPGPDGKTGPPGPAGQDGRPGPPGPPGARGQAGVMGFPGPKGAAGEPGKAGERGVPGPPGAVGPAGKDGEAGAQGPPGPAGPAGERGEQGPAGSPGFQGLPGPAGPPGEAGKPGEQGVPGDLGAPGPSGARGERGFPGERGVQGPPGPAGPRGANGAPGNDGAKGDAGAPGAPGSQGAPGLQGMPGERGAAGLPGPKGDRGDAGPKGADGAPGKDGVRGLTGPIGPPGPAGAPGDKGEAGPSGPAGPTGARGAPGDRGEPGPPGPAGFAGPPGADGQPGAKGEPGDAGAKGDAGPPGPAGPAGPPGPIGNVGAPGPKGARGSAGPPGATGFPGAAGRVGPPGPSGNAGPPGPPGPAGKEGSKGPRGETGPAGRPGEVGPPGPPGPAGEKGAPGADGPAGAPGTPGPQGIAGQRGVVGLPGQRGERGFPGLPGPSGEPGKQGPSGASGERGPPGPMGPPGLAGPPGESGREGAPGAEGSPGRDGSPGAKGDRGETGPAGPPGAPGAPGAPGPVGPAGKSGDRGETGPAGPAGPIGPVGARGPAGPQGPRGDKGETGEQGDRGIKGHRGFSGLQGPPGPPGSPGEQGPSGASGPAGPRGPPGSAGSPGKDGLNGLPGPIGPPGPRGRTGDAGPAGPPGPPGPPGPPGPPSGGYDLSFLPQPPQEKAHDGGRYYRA
Chain of Acid-soluble type I atelocollagen from bovine hides (bovine) (P02465 80-1117, chain 2 of 2, further chain): as the sequence (P02465 80-1117, chain 2 of 2, further chain) above
The target in assay [6] is Type I gelatin (heat-denatured acid-soluble type I atelocollagen from bovine hides) (bovine). Nature of the assay: ELISA.
Assay [7] concerns the target Acid-soluble type I atelocollagen from bovine hides (bovine) (UniProt P02453). Description: ELISA; indirect ELISA; soluble collagen immobilised, ColQ1-CU G472V variants in solution; 25 °C to preserve the triple-helical fold (Fig. 4C).
In assay [8] the target is V-(GXY)26 (Streptococcus pyogenes). Nature of the assay: MST; NanoTemper Monolith NT.115, Protein Labeling Kit RED-NHS; 50 mM HEPES pH 7.5, 150 mM NaCl, 10 mM CaCl2, 10 µM ZnCl2, 0.05% Tween-20, 3 mM NaN3; with 1 mM ß-mercaptoethanol (reducing) (Fig. 5F).
Assay [9] has the same target. Description: MST; NanoTemper Monolith NT.115, Protein Labeling Kit RED-NHS; 50 mM HEPES pH 7.5, 150 mM NaCl, 10 mM CaCl2, 10 µM ZnCl2, 0.05% Tween-20, 3 mM NaN3; without ß-mercaptoethanol (nonreducing) (Fig. 5F).
For assay [10], the target named is T1, soluble type I collagen (acid-soluble type I atelocollagen from bovine hides) (bovine, UniProt P02453 162-1217; P02465 80-1117).
T1 construct: also called soluble collagen; tropocollagen
T1 sequence (P02453 162-1217, chain 1 of 2): as the sequence (P02453 162-1217, chain 1 of 2) above
T1 sequence (P02465 80-1117, chain 2 of 2): as the sequence (P02465 80-1117, chain 2 of 2, further chain) above
Description: ELISA. The note with it: both partners purified.

The target in assay [11] is Acid-soluble type I atelocollagen from bovine hides (bovine, UniProt P02453 162-1217; P02465 80-1117). Nature of the assay: ELISA. To be noted: both partners purified.
Chain of Acid-soluble type I atelocollagen from bovine hides (P02453 162-1217, chain 1 of 2): as the sequence (P02453 162-1217, chain 1 of 2) above
Chain of Acid-soluble type I atelocollagen from bovine hides (P02465 80-1117, chain 2 of 2): as the sequence (P02465 80-1117, chain 2 of 2, further chain) above

Where only a bound is given, the exact number is not on record here.

The Kd is the free concentration of one partner at which half of the binding sites on the other are occupied at equilibrium, for simple one-to-one binding. The stoichiometry N is the number of molecules, sites or subunits per partner or assembly.

In the case of “ColQ1-CU G472V Y173A (domain or fragment)”, in assay [1], the fold drop in binding affinity against ColQ1-CU G472V came out at 15 fold.

“ColG-PKD (I799-N880) (from UniProt Q9X721 799-880) (domain or fragment)” registered a Kd in assay [2] of more than 1000 µM. Turning to V-domain of Scl2.3 (domain or fragment), in [3], the stoichiometry N amounted to 3. As to ColQ1-CU G472V F176A, the Kd in [4] is 1.1 µM. For “ColG-FL E524A (Y119-K1118) (from UniProt Q9X721 119-1118) (enzyme)”, the Kd stood at 0.024 µM in assay [5] and 0.031 µM in assay [6].

Regarding ColQ1-CU G472V (domain or fragment), the equilibrium dissociation constant (Kd) in [1] and in [7] was 1.6 µM throughout. In the case of “ColG-PD E524A (D398-G790) (domain or fragment)”, the values for the Kd in assay [5] and in assay [6] were 497 µM and 243 µM, respectively. For the molecule ColQ1-CU G472V F123A, in [4], the Kd worked out at 1.5 µM. In turn, “ColG-AD (Y119-S392) (from UniProt Q9X721 119-392) (domain or fragment)” had an equilibrium dissociation constant (Kd) in [6] of 0.11 µM.

In the case of “ColG-CU E524A (Y119-G790) (domain or fragment)”, the results for the Kd in assay [5] and in assay [6] were 0.37 µM and 0.08 µM, respectively.

In the case of “ColQ1-CU G472V Y270A (domain or fragment)”, the fold increase in affinity against ColQ1-CU G472V in assay [7] came to 8 fold. In the case of “ColQ1-CU G472V R169A (domain or fragment)”, the fold increase in affinity against ColQ1-CU G472V in [7] came to 9 fold.

In the case of ColQ1-CU G472V E166A, the Kd in assay [4] was 4.8 µM. As to “ColQ1-CU G472V N226A (domain or fragment)”, the Kd in assay [1] and in assay [7] was more than 150 µM throughout. “ColG-CU CL4-G494V, noncrosslinked (reduced) (domain or fragment)” came in with an equilibrium dissociation constant (Kd) in assay [8] of 2.9 µM. “ColG-CBD2 (N1004-K1118) (from UniProt Q9X721 1004-1118) (domain or fragment)” gave a dissociation constant Kd in assay [6] of 253 µM. “ColG-CU CL4-G494V, crosslinked (domain or fragment)” displayed a dissociation constant Kd in assay [9] of 36 µM. For ColQ1-CU G472V R169A, the Kd in [4] amounted to 2.7 µM. In assay [7], “ColQ1-CU G472V F176A (domain or fragment)” showed a fold increase in affinity against ColQ1-CU G472V of 20 fold.

B1: ColG-PKD (I799-N880) (domain or fragment)
chain: IAKVTGPSTGAVGRNIEFSGKDSKDEDGKIVSYDWDFGDGATSRGKNSVHAYKKAGTYNVTLKVTDDKGATATESFTIEIKN
notes: source: E. coli Nico21 (DE3), purified
B1 gave a Kd in assay [10] of more than 1000 µM.

B2: ColG-CBD2 (N1004-K1118) (domain or fragment)
chain: NEKLKEKENNDSSDKATVIPNFNTTMQGSLLGDDSRDYYSFEVKEEGEVNIELDKKDEFGVTWTLHPESNINDRITYGQVDGNKVSNKVKLRPGKYYLLVYKYSGSGNYELRVNK
modifications: fluorescently labeled in the fibrillar collagen assay (dye not stated)
notes: as for B1
As for B2, in assay [11], the Kd was determined as 14 ± 1 µM.

B3: ColG-AD (Y119-S392) (domain or fragment)
chain: YDFEYLNGLSYTELTNLIKNIKWNQINGLFNYSTGSQKFFGDKNRVQAIINALQESGRTYTANDMKGIETFTEVLRAGFYLGYYNDGLSYLNDRNFQDKCIPAMIAIQKNPNFKLGTAVQDEVITSLGKLIGNASANAEVVNNCVPVLKQFRENLNQYAPDYVKGTAVNELIKGIEFDFSGAAYEKDVKTMPWYGKIDPFINELKALGLYGNITSATEWASDVGIYYLSKFGLYSTNRNDIVQSLEKAVDMYKYGKIAFVAMERITWDYDGIGS
modifications: fluorescently labeled in the fibrillar collagen assay (dye not stated)
notes: as for B1
In turn, B3 showed a Kd in [11] of 0.072 ± 0.009 µM.
